The values that follow come from article PMC11602160, “Modulation of UPF1 catalytic activity upon interaction of SARS-CoV-2 Nucleocapsid protein with factors involved in nonsense mediated-mRNA decay”.

One series addresses T1, UPF1 (CH-helicase core) (Homo sapiens, UniProt Q92900 115-352+364-925, internal_change).
T1 sequence: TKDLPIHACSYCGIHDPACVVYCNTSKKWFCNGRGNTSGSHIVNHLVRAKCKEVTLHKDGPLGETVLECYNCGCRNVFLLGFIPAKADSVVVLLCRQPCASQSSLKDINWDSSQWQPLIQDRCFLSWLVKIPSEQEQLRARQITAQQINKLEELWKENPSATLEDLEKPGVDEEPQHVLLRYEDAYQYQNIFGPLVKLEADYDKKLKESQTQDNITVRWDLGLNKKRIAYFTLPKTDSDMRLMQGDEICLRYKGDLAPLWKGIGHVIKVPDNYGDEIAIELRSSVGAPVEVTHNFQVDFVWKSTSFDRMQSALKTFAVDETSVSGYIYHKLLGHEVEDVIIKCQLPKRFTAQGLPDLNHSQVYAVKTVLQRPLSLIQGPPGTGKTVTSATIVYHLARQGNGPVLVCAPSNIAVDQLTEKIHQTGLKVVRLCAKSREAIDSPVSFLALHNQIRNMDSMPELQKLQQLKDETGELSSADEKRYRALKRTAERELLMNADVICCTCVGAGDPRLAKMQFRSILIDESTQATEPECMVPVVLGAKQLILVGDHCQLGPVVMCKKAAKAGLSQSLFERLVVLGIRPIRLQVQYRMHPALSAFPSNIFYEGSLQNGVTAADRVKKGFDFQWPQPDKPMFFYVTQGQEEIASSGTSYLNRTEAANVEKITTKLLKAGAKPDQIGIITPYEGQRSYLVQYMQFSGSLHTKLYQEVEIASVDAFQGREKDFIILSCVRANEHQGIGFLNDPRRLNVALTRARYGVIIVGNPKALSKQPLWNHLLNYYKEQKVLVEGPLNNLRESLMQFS
Kind of series: fluorescence anisotropy; 1 mM Mg2+; Fluorescence anisotropy: 20 mM HEPES pH 7.5, 100 mM NaCl, 1 mM MgCl2, 100 µg/ml BSA, 5 nM RNA, 25 °C, 1 h; one-site fit with Hill slope. SEC conditions not in the material. The following applies: protein: recombinant; tags: His6 or His-GST fusion, cleavable (TEV/3C); label: 5' 6-FAM; single strand.

In series [1] the target is Nfl (Nucleocapsid full-length) (SARS-CoV-2, UniProt P0DTC9 1-419). The description is as above. The following applies: protein: recombinant; tags: His6 or His-GST fusion, cleavable (TEV/3C); chain copies: 2; label: 5' 6-FAM; single strand.

For UUUUUUUUUUUU (ssRNA) [U12 (12-mer poly-U RNA)], the Kd with UPF1 (CH-helicase core) is about 50 nM; in series [1], 82 nM.

Broadly, the Kd is the equilibrium constant for the complex coming apart.
